This is an account of results in PMC3714108.

Where two headings read alike, the source gives them in different places.

Holding throughout (test): EMSA
On the technique in general: Mobility shift assays separate free from complexed probe on a gel.

Series [1] concerns the target T1, CcrA (Staphylococcus aureus 923 (USA300, …, UniProt Q84BN8 1-449)).
T1 sequence: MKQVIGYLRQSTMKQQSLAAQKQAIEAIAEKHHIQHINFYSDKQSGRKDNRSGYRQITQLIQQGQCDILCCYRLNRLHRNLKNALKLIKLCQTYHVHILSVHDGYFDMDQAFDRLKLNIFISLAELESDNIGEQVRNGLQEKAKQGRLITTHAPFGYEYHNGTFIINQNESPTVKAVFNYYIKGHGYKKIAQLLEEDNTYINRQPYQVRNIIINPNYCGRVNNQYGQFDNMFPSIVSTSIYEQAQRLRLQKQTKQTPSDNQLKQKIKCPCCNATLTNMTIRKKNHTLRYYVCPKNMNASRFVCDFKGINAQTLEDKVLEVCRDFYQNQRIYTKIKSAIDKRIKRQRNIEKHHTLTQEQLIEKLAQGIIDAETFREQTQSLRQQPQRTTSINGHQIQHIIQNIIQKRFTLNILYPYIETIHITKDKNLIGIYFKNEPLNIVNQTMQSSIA

The target in series [2] is T2, CcrB (Staphylococcus aureus 923 (USA300, …, UniProt Q9XB94 1-542)).
T2 sequence: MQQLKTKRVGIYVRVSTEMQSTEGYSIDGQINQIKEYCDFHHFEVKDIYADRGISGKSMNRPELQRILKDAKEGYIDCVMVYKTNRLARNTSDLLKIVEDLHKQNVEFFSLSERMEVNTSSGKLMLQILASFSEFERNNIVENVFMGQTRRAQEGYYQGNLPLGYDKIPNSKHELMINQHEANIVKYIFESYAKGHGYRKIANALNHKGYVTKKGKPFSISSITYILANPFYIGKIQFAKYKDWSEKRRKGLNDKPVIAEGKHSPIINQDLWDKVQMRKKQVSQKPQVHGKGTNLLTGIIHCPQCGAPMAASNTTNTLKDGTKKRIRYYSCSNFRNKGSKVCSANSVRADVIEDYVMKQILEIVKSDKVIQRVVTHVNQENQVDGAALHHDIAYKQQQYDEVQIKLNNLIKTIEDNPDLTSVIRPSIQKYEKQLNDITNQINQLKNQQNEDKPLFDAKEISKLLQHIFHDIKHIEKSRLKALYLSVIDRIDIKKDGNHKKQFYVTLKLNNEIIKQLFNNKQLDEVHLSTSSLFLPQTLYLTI

Series [3] deals with T1, CcrA. This is another data set of the same source.
For series [4], the target named is T2, CcrB. This is another data set of the same source.
In series [5] the target is T1, CcrA. This is another data set of the same source.
Series [6] deals with T1, CcrA. The source holds these as a separate data set.

B1: SCC half site 36 (dsDNA)
DNA 1: ATTTTTCAAAAACCGCATCATTAACTGATAAGCAGA
DNA 2: TCTGCTTATCAGTTAATGATGCGGTTTTTGAAAAAT
As to B1, the binding result with CcrA [1] is “no binding”; in the series with CcrB [2], “binds”.

B2: attB ns half site 62 (dsDNA)
DNA 1: TACAGAGCATTTAAGATTATGCGAGGAGATGGCTGAGAACACCCCTTGTGAGGTACTTCATG
DNA 2: CATGAAGTACCTCACAAGGGGTGTTCTCAGCCATCTCCTCGCATAATCTTAAATGCTCTGTA
B2: the binding result with CcrA [3] is listed as “binds”.

B3: attB62 (dsDNA)
DNA 1: TACAGAGCATTTAAGATTATGCGAGGAGAGGCGTATCATAAGTAAAACTAAAAAATTCTGTA
DNA 2: TACAGAATTTTTTAGTTTTACTTATGATACGCCTCTCCTCGCATAATCTTAAATGCTCTGTA
B3: in the series with CcrB [4], the dissociation constant Kd (as a rule, the equilibrium constant for the complex coming apart) was about 0.0141 µM. Moreover, the binding result with CcrA [5] is given as “binds”.

B4: attR72 (dsDNA)
DNA 1: TTAATTTTTCAAAAACCGCATCATTAACTGATAAGCAGAGGCGTATCATAAGTAAAACTAAAAAATTCTGTA
DNA 2: TACAGAATTTTTTAGTTTTACTTATGATACGCCTCTGCTTATCAGTTAATGATGCGGTTTTTGAAAAATTAA
On to B4, for which the Kd in the series with CcrB [4] is about 0.0141 µM. In addition, in the series with CcrA [6], the binding result is “no binding”.

B5: attL58 (dsDNA)
DNA 1: TACAGAGCATTTAAGATTATGCGAGGAGAAGCTTATCATAAATGATGCGGTTTTTTCA
DNA 2: TGAAAAAACCGCATCATTTATGATAAGCTTCTCCTCGCATAATCTTAAATGCTCTGTA
B5: in the series with CcrB [4], the Kd was about 0.0141 µM. Also, in the series with CcrA [5], the binding result is reported as “binds”.

B6: attSCC68 (dsDNA)
DNA 1: TTATTTTTTCAAAAACCGCATCATTAACTGATAAGCAGAAGCTTATCATAAATGATGCGGTTTTTTCA
DNA 2: TGAAAAAACCGCATCATTTATGATAAGCTTCTGCTTATCAGTTAATGATGCGGTTTTTGAAAAAATAA
In turn, B6 had a Kd in the series with CcrB [4] of about 0.0141 µM. Moreover, the binding result in the series with CcrA [6] is listed as “no binding”.
